The results in this text go back to the supplement of paper PMC9170038.

Data set [1] relates to MS2 coat protein. As to the kind of experiment: apparent KD of MS2 coat protein, switch ON state; designed switch direction (-1 OFF switch, 1 ON switch): 1; higher = weaker reporter binding. The settings on record: FMN input: 0 or 200 uM; Eterna round: R93 (includes R88 designs). The gist of the method:
(§1)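 Apparent KD stands for the median, per design, of fits to normalised cluster binding curves. The curves came from titrating on-chip-transcribed RNA switches on Illumina sequencing clusters with SNAP-549-labelled MS2 coat protein, twofold from 0.7 or 1.5 nM to 3 µM. Buffer was 100 mM Tris-HCl pH 7.5, 80 mM KCl, 4 mM MgCl2, without or with constant ligand.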

In data set [2] the test system is MS2 coat protein. Nature of the data set: apparent KD of MS2 coat protein, switch OFF state (with FMN for OFF switches, without FMN for ON switches); designed switch direction (-1 OFF switch, 1 ON switch): 1; higher = weaker reporter binding. The settings on record: FMN input: 0 or 200 uM; Eterna round: R93 (includes R88 designs). The procedure, abridged: as §1

Take “GUGAGACAUGAGGAUCACCCAUGUACGCGUCAGCAAGGAUAUGGGAAUAAAAGACAGAGACCAGAAGGUGCUGUUG [Arzaerri]”: the “apparent KD of MS2 coat protein” value in the data set with MS2 coat protein [1] turned out to be 0.0229 µM; with MS2 coat protein [2], 0.0675 µM.
For the sequence “AACAAUCUAUCUGAGGAUAUGUGUCGAAAGACAUGAGGAUCACCCAUGUGAAAACAUGAAAAGACACAGAAGGCAGAUAGAUUGA [SS2: 1154]”, the figures for the “apparent KD of MS2 coat protein” value with MS2 coat protein [1] and in the data set on MS2 coat protein [2] were 0.0402 µM and 0.0415 µM, respectively.
Taken in the same sequence, the figures for “AAAACACAUGAGGAUCACCCAUGUAGAAAUACGGGAGGAUAUGCGAAAACGAAAGACAAAGUAGAAGGCCUAAAAG [saturn 8]” were 0.0359 µM and 0.0698 µM.
Taken in the same sequence, the figures for “CGGAAGGAGAGAGAGGAUAUCCAAAGGAAAACAUGAGGAUCACCCAUGUAGAAGGUAGGAAAUUGGGAGAAGGCUCAACAGAGAG [salish99-ss2-130]” were 0.0191 µM and 0.0334 µM.
Regarding “AAACCACAUGAGGAUCACCCAUGUAAAAAUAACGCAGGAUAUGGAAACACGAAAGUGAAACCAGAAGGGUGAAAAG [77%, Mat - Mod of Eli, 15]”, the entries for the “apparent KD of MS2 coat protein” value in the data set on MS2 coat protein [1] and in the data set on MS2 coat protein [2] were 0.0245 µM and 0.033 µM, respectively.
Taken in the same sequence, the figures for “AGGAGACAUGAGGAUCACCCAUGUGCACGUGGAGGAGGAUAUGCUAGUAGAAGAUAGAAUGCAGAAGGCCUAAGAA [JR_SameState1_Sub3]” were 0.0428 µM and 0.0353 µM.
Regarding “AAAUAAAUGACUGAGGAUAUGUCGAAGAAAACAUGAGGAUCACCCAUGUGAUAAUAAAAAGGGUGAUAGAAGGUAGUCAACAAAC [Mod 10 of Pariah 4 by Hyphema in Round 1]”, the “apparent KD of MS2 coat protein” value was determined as 0.323 µM in the data set with MS2 coat protein [1] and 0.262 µM with MS2 coat protein [2].
For “GAAGACAUAGUUCAGGAUAUAGGAAUAGUCACAUGAGGAUCACCCAUGUGCAUUUAUAUGCGCACUUAGAAGGGAGGUAGUUAUC [SameState2 Malc#23]”, the entries for the “apparent KD of MS2 coat protein” value in the data set with MS2 coat protein [1] and in the data set on MS2 coat protein [2] were 0.036 µM and 0.025 µM, respectively.
Taken in the same sequence, the figures for “AAAAUAAAAAGGUAGGAUAUGGGUAAGUCUACAUGAGGAUCACCCAUGUAAUAAAAAGAAAAAAACCAGAAGGACCAAAAUAAAA [72%, More Wateronthemoon, 11]” were 0.0202 µM and 0.0501 µM.
Taken in the same sequence, the figures for “AGAAAUAAAAGAGAGGAUAUCCAAAAGAAAACAUGAGGAUCACCCAUGUACACGAAAGUGAAAUGGGAGAAGGCUCAAAAUAAAG [80% More Helter Skelter 2 + Hairpin]” were 0.121 µM and 0.536 µM.
Taken in the same sequence, the figures for “CGGAGACAUGAGGAUCACCCAUGUGAGAAGAGGCGAGGAUAUCGAAAGAAAGAAGAGAAACGAGAAGGCGCGAGGG [salish99-SS1-075]” were 0.0183 µM and 0.0277 µM.
In the case of “GGAAGACAUGAGGAUCACCCAUGUGGGAAUAUGGGAGGAUAUACAAAGACGAGAGUCAGAGUAGAAGGCCUAGGAC [salish99-ss1-102]”, the “apparent KD of MS2 coat protein” value with MS2 coat protein [1] is 0.0328 µM; in the data set on MS2 coat protein [2], 0.105 µM.
Taken in the same sequence, the figures for “UAUAGACAUGAGGAUCACCCAUGUAGAAUUAUGGGAGGAUAUACAAAGACGAGAGUCAGAGUAGAAGGCCUAGGAC [salish99-ss1-155]” were 0.0226 µM and 0.0496 µM.
Taken in the same sequence, the figures for “GAAAAACAUGAGGAUCACCCAUGUGAAAAUAUGGGAGGAUAUACAAGGACGAAAGUCAAGGUAGAAGGCCUAAAAG [Mat - Same State 1 - Eli mod - 27]” were 0.0394 µM and 0.0788 µM.
Taken in the same sequence, the figures for “AGCACGCGAUUGGAGGAUAUGUUGUUUGCAACAUGAGGAUCACCCAUGUCUGAGGCUGAAAAGCAGCAGAAGGCCGAUACAACCA [SS2-1.1]” were 0.0306 µM and 0.113 µM.
Take “GGGAGACAUGAGGAUCACCCAUGUGAGAAGAGGCGAGGAUAUCGAAAAAAAAAAAAAAAACGAGAAGGCGCGAGAG [salish99-SS1-005]”: the “apparent KD of MS2 coat protein” value with MS2 coat protein [1] is 0.0637 µM; with MS2 coat protein [2], 0.0286 µM.
As for “UGGAGACAUGAGGAUCACCCAUGUGAGAAGAGGCGAGGAUAUCGAAAGAAAGAAGAGAAACGAGAAGGCGCGAGUC [salish99-SS1-046]”, the “apparent KD of MS2 coat protein” value in the data set on MS2 coat protein [1] was found to be 0.0283 µM; with MS2 coat protein [2], 0.041 µM.
On to “AGGAAACAUGAGGAUCACCCAUGUAAAGAUGGGCGAGGAUAUCGAAAGAAAAGAAAGAAACGAGAAGGCGCAAAAG [Flamingo]”, for which the “apparent KD of MS2 coat protein” value in the data set with MS2 coat protein [1] came out at 0.0437 µM; in the data set on MS2 coat protein [2], 0.24 µM.
Taken in the same sequence, the figures for “AAAGACACGGUGCAGGAUAUAUUAAUAGUCACAUGAGGAUCACCCAUGUUCAUUUAUAUGAACGAGUAGAAGGGCGGUGAAAAAA [SameState2 Malc#8]” were 0.174 µM and 0.11 µM.
As to “AAAAAACAUGAGGAUCACCCAUGUCAAAAGACGUGAGGAUAUGUACAGACUUCGGUCUGUACAGAAGGCAUGAAAA [SS1 - 1056]”, the “apparent KD of MS2 coat protein” value with MS2 coat protein [1] was found to be 0.032 µM; with MS2 coat protein [2], 0.136 µM.
Taken in the same sequence, the figures for “AACAACAAUAUGAAGGAUAUCCACAACAAGACAUGAGGAUCACCCAUGUAAACAAAGAACAUACAGGAGAAGGUCAAGGGUGAAA [JR_SS002_Sub1203]” were 0.0562 µM and 0.039 µM.
“ACUACACAUGAGGAUCACCCAUGUCAGGCCGGACUAGGAUAUUAUAAACCAGAGUAAAAAUAAGAAGGAGUAGGAA [JR_SS001_Sub310]”: the “apparent KD of MS2 coat protein” value was determined as 0.0392 µM in the data set with MS2 coat protein [1] and 0.0613 µM in the data set with MS2 coat protein [2].
For the sequence “AUUUUACAUGAGGAUCACCCAUGUUUUGGUGGAUCAGGAUAUAGAUUGAAUGAGUUUUAGCUAGAAGGGAUAUAUA [JR_SS001_Sub506]”, the “apparent KD of MS2 coat protein” value is 0.111 µM in the data set on MS2 coat protein [1] and 0.11 µM in the data set with MS2 coat protein [2].
Taken in the same sequence, the figures for “AAUACACAUGAGGAUCACCCAUGUAGAAAGAAGGCAGGAUAUCAGAUCCACAUGUGAUAAUGAGAAGGGCCAAUAU [SS 1 Tesla 10]” were 0.0219 µM and 0.171 µM.
In the case of “GGUACGGCUAGUCAGGAUAUCAGGCGUAAGACAUGAGGAUCACCCAUGUCCUAAGAACAGGUAACUGAGAAGGGACAGGGCGUCC [JR_SS002_Sub414]”, the “apparent KD of MS2 coat protein” value in the data set on MS2 coat protein [1] stood at 0.0288 µM; in the data set with MS2 coat protein [2] it was 0.0631 µM.
Turning to “AGAAAUAAAAGAGAGGAUAUCCAAAAGAAAACAUGAGGAUCACCCAUGUAAAAGAAAAUAAAAUGGGAGAAGGCUCAUAUUAAAG [JL Skelter 2 mod 3]”, the figures for the “apparent KD of MS2 coat protein” value in the data set with MS2 coat protein [1] and with MS2 coat protein [2] were 0.0449 µM and 0.146 µM, respectively.
Taken in the same sequence, the figures for “AACAAUCUAUCUGAGGAUAUGUGUCAAAAGACAUGAGGAUCACCCAUGUAAAAACAUGAAAAGACACAGAAGGCAGAUAGAUUGA [SS2: 1153]” were 0.0214 µM and 0.0442 µM.
Taken in the same sequence, the figures for “GAAGACGUAGGAUAGGAUAUGUGAAUAAUUACAUGAGGAUCACCCAUGUCCAUUUAUAUGGGAACAUAGAAGGGUUUUCGUUAUC [SameState2 Malc#9]” were 0.341 µM and 0.281 µM.
Regarding “AAAAUACAUGAGGAUCACCCAUGUGAGUCGAACGCAGGAUAUGCCCGUUGAAAAGGGCGGGCAGAAGGGUGCCGAA [SameState1-IV]”, the entries for the “apparent KD of MS2 coat protein” value in the data set with MS2 coat protein [1] and in the data set on MS2 coat protein [2] were 0.0344 µM and 0.0617 µM, respectively.
For “UAAAAACAUGAGGAUCACCCAUGUGAGAACAUGGGAGGAUAUACGAGGACGAAAGUCAAAGUAGAAGGCCUAAAAG [Garnet 84]”, the entries for the “apparent KD of MS2 coat protein” value in the data set on MS2 coat protein [1] and with MS2 coat protein [2] were 0.272 µM and 0.101 µM, respectively.
Taken in the same sequence, the figures for “CGAAAGGAGAGAGAGGAUAUCCAAAGGAAAACAUGAGGAUCACCCAUGUAGAAGGUAGGAGAUUGGGAGAAGGCUCAAGAGAGAA [salish99-ss2-146]” were 0.0191 µM and 0.025 µM.
As to “AAAUAAAUGACUGAGGAUAUAUCGAUGAAUACAUGAGGAUCACCCAUGUGAUAAUAAAAAGGGUGGUAGAAGGUAGUCAACAAAC [Mod 13 of Pariah 4 by Hyphema in Round 1]”, the “apparent KD of MS2 coat protein” value was found to be 0.0959 µM with MS2 coat protein [1] and 0.0719 µM in the data set with MS2 coat protein [2].
With “AAGAGACAUGAGGAUCACCCAUGUAGGAUUAUGGGAGGAUAUACAAAGACGAGAGUCAGAGUAGAAGGCCUAGGAU [salish99-ss1-130(!)]”, the “apparent KD of MS2 coat protein” value was 0.0215 µM with MS2 coat protein [1] and 0.0599 µM in the data set on MS2 coat protein [2].
On to “AACAUACAUGAGGAUCACCCAUGUUUAUAAAAACAAGGAUAUAUAAGAACAAACAAACAAAUAGAAGGUGUAAAAA [Default title]”, for which the figures for the “apparent KD of MS2 coat protein” value with MS2 coat protein [1] and in the data set with MS2 coat protein [2] were 0.0234 µM and 0.0172 µM, respectively.
As to “AACAGACAUGAGGAUCACCCAUGUAGAAUUAUGGGAGGAUAUACAAAGACGAGAGUCAGAGUAGAAGGCCUAGGAC [salish99-ss1-163]”, the “apparent KD of MS2 coat protein” value in the data set with MS2 coat protein [1] turned out to be 0.02 µM; with MS2 coat protein [2], 0.0712 µM.
For “UGGAGACAUGAGGAUCACCCAUGUGAGAAGAGGCGAGGAUAUCGAAAGAAAGAAGAGAAACGAGAAGGCGCGAGAG [salish99-SS1-041]”, the entries for the “apparent KD of MS2 coat protein” value in the data set with MS2 coat protein [1] and with MS2 coat protein [2] were 0.0427 µM and 0.0512 µM, respectively.
Taken in the same sequence, the figures for “GUAUAUAUGAGGUAGGAUAUCCAAAAUAAAACAUGAGGAUCACCCAUGUAAAUAAAUAAUAAAUGGGAGAAGGACCACAUAUAUAC [Ex6 sub 3]” were 0.0162 µM and 0.0342 µM.
Regarding “AAUAAACAUGAGGAUCACCCAUGUAGAAACAUGGGAGGAUAUACAAAGACGAAAGUCAAAGUAGAAGGCCUAAUAA [Mat - Same State 1 - Mod - D167]”, the “apparent KD of MS2 coat protein” value with MS2 coat protein [1] came to 0.0927 µM; in the data set with MS2 coat protein [2], 0.0424 µM.
With “CUAAUUGCAUAUUAGGAUAUACACUGGGUGACAUGAGGAUCACCCAUGUAAAAGCACACUCGGUAGUAGAAGGAGUGUGCAAGUC [Iserso]”, the “apparent KD of MS2 coat protein” value with MS2 coat protein [1] came to 0.036 µM; in the data set on MS2 coat protein [2] it was 0.0191 µM.
